# Results taken from US20250066483A1.
# Biological target: bovine PD-1-His (bovine)
# Experiment: SPR (Biacore X100), bovine PD-1-His immobilised on a CM5 chip, antibody as analyte, single kinetics, 3 repeats
binder,measurement,value
"rat anti-bovine PD-1 monoclonal antibody 5D2 (antibody, V domains shown) VH: QVQLKETGPGLVQPTQTLSITCTVSGFSLTSYYIQWVRQTPGKGLEWMGFIRSGGSTEYNSEFKSRLSINRDTSKNQVFLKMNSLKTEDTGVYYCARTSSGYEGGFDYWGQGVMVTVSS VL: DVVLTQTPVSLSVTLGDQASISCRSSQSLEYSDGYTYLEWYLQKPGQSPQLLIYGVSNRFSGVPDRFIGSGSGTDFTLKISRVEPEDLGVYYCFQATHDPDTFGAGTKLELK",Kd,12.2 nM
same,koff,0.000215 s⁻¹
same,kon,18400 M⁻¹ s⁻¹
